T1: native human factor VIII (nhfVIII) (human, UniProt P00451 20-2351)
T1 chain 1: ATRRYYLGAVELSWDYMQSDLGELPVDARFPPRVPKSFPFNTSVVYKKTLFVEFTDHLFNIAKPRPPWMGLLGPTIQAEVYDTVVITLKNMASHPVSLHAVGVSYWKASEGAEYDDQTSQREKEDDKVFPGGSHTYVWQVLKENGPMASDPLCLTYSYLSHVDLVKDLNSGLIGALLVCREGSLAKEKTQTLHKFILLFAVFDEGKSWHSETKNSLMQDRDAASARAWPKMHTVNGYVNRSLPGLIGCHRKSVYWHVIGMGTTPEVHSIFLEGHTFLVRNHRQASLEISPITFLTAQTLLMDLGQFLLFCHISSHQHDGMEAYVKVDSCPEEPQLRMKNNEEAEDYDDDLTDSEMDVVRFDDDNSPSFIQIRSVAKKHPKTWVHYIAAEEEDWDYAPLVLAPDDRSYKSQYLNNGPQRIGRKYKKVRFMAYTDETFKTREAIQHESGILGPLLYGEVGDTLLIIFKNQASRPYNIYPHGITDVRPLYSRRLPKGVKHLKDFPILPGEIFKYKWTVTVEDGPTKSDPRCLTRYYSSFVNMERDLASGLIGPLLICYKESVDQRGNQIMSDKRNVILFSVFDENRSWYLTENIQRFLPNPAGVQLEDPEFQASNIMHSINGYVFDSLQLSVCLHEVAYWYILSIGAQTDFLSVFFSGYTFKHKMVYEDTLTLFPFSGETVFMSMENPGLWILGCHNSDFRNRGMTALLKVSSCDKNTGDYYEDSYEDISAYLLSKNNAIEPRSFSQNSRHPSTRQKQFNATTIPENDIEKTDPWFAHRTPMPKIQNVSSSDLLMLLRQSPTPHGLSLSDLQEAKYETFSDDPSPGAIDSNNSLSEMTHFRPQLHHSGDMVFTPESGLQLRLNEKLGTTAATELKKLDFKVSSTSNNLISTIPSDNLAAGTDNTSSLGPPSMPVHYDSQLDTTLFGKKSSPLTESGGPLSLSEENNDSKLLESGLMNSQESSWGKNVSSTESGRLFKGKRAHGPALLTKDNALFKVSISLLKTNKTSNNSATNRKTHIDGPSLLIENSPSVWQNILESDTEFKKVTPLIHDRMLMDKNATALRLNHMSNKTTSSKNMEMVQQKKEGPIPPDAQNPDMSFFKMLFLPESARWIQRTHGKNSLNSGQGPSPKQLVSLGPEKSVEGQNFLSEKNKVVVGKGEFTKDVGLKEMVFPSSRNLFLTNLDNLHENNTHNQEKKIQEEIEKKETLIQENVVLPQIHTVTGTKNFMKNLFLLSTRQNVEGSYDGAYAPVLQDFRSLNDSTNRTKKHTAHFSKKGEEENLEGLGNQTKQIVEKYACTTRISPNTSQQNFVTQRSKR
T1 chain 2: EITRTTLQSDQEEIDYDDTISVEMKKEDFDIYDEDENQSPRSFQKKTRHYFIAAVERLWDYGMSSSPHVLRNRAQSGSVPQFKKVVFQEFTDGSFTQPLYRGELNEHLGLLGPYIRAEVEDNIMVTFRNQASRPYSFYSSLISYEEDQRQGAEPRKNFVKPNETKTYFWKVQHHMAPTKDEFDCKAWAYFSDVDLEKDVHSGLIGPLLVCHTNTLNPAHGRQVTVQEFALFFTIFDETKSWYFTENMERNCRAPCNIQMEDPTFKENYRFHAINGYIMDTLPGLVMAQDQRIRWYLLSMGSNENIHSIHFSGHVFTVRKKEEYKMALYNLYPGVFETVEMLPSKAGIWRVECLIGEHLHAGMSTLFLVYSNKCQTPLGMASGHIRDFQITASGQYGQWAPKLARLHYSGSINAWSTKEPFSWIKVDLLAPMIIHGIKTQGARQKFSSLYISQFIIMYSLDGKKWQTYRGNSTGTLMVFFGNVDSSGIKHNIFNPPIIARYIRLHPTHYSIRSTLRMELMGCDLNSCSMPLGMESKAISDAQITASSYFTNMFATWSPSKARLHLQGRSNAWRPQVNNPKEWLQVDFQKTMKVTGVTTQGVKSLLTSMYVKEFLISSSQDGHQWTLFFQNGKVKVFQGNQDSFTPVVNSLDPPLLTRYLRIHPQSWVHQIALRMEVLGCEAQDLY

B1: CS-456 (AEGTGDFGCSWLFPCPFDPGPEGGGS-NHNH2) (peptide)
peptide: AEGTGDFGCSWLFPCPFDPGPEGGGS-NHNH2
modifications: disulfide 9-15
notes: synthetic peptide immobilized on Toyopearl Formyl 650-M resin by hydrazone bond
B2: CS-458 (AEGTGDFCWVFAFDHCHDPGPEGGGS-NHNH2) (peptide)
peptide: AEGTGDFCWVFAFDHCHDPGPEGGGS-NHNH2
modifications: disulfide 8-16
notes: as for B1
B3: CS-454 (AEGTGDHLCGAWFRPCDADPGPEGGGS-NHNH2) (peptide)
peptide: AEGTGDHLCGAWFRPCDADPGPEGGGS-NHNH2
modifications: disulfide 9-16
notes: as for B1

Positions of bridges follow the written chain, without caps; N, C: chain ends. No end group written: not given here. *: point of attachment. NHNH2 = NN*

The text below walks through data of patent publication US20120045819A1 (published 2012).

This assay addresses T1, native human factor VIII (nhfVIII). The experiment in a line: batch binding to peptide beads; fractions by sandwich ELISA; % of total recovered. For orientation: ELISA stands for enzyme-linked immunosorbent assay.
B1: the “% of total recovered in Eluate” value is 16%, the “% of total recovered in Unbound” value was found to be 70% and the “% of total recovered in Wash” value is 14%.
For B2 the same measures were 39%, 48% and 13%.
For B3 the same measures were 21%, 67% and 12%.
